assay: yeast display, Sf9 membrane polyspecificity reagent, FACS + sequencing; frameworks hold sequencing errors
Method in brief: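 Nanobodies from a synthetic yeast display library (Saccharomyces cerevisiae BJ5465), induced 36–48 hours with galactose, were stained 1 hour at 4 °C with 10% biotinylated, detergent-solubilized Sf9 membrane reagent, enriched on streptavidin microbeads, then FACS-sorted. Anti-HA (expression) and streptavidin (reagent binding) fluorescence set low and high (top ~1%) gates. Polyreactivity labels come from the gate of origin. Genes were colony-PCR amplified, MiSeq 2 × 250 sequenced and filtered by CDR length.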

| Sequence | polyreactivity (PSR sort gate) |
| --- | --- |
| QVQILESGGGLVQAGGSLRLSCAASGFTFTGYALGWYSQAPGKERELVAAINARATSTYYADSVKGRFTISRDNAMNHVYLQIKSLIPEDTAVYFCAATFYRRYVDLGYWGQCTQVTVSS | high polyreactivity |
| QVQIVDSGGGLVQAGGSLRLSCAASGSTFIPNDMGWYRQAPGKERELVAAITVSGDDTYYADSVKGRFTISRDNAKNTVYIQMNSLKPDDTAVYYCNVDDPFYSGVVVFDYWGQGTLVTVSS | low polyreactivity |
| QVQIVESCGGLVQAGGSHRLSCAASGSTFVPNAMGWYRQAPGKEREFVAAISRIGGTYYADSVKGRFTISRDNEKNTVYLLMNCLKPEDNAVYYCAAEPSSVGYHVEYDYWGQGTQVTVSS | low polyreactivity |
| QVQIVESGAGLVQAGRSLRLSCAASGIIFHRYAMGWYRQAPGKERELVAAITWSGDSTYYADSVKGRFTISRDNAKNTVYLQMNSLKPEDTAVYYFWEYDYWGQGTQVTVSS | low polyreactivity |
| QVQIVESGAGLVQPGGSLRLSCAASGRTFPLYAMGWYRPAPGKEREFVAAITVSGVSTSYADSVKGRFTISRDNAKNTVYLQMNSLKPEDTAVYYCAADYYIWTYWDVYYWGQGTQVTVSS | high polyreactivity |
| QVQIVESGGCLVQAGGSLRLSCAASGFTLFLNSMGWYRQAPGQERELVAAISKSDGITYYADSVKGRFSISRDNAKNTVYLKMNSLKPEDTAVYYCNADARGWSVWDPGEYNYWGQGTQVNVSS | low polyreactivity |
| QVQIVESGGGKVQEGGSLRLSCAASGITFTWYDMGWYRQAPGKERELVAAITTDGGSTYYADSVKGRFTISRDNAKNTVYLQINSLKPEDTAVYYCAAAGYVPFPVVYEYWGQGTQVTVSS | high polyreactivity |
| QVQIVESGGGLFQAGGSLRISCAASGRPFAPNAMGWYRQAPAKERELVAAITGRGGRTYYADSVKGRFTISRDNANNTVYLQMNSEKPADTAVYYCAYFIAPWGLDFWGQGTEVTVSS | high polyreactivity |
| QVQIVESGGGLVHAGGSLRLSCAASGRNIPPYVIAWYRQAPGKEREMVAAMSWRGGNTYYADSVKGRFTISRDNAKNTVYLQMNSLKPEDTAVYYCAAKAYRRYSIPPYGYWGQGTQVTVSW | low polyreactivity |
| QVQIVESGGGLVHAGGSLRLSCAASGSIYKRYAMGWYRQAPGKERELVAAIRWSGGSTYYADSVKGRFTISRDNAMNTVFLQMNSLKPEDTAVYYCARDGWGRLYGMGYWGQGTQVTVSS | low polyreactivity |
| QVQIVESGGGLVPAGCSLRLICAASGFTYALYAMGWYRQAPGKETELVAANTYRGGSTYDADSVKWRFTISRDNAKNTVYLQLISLKPEDTAVYYCNAGGLWFPGVPDYDYWVQGTQVTVSS | high polyreactivity |
| QVQIVESGGGLVQAAGSLRLSCAASGRTFGYYAMGWYREAPGKEREMVAAITSCGRNTYYADTVKGRFTISRDNAKNNVYLQMNRLKPEDTAVYYCNTVYHAYWGKCVNYWGQGTQVTVSS | high polyreactivity |
| QVQIVESGGGLVQAGGILRLSCAASGRIFWRNAMGWYRQAPGKEREFVAAITYTAGRTYYADSVKGRFTISRDNSKITVYLQMNSLKPEDTAVYYCAAGSRRPGGTGYDHWVQGTQVTVSS | low polyreactivity |
| QVQIVESGGGLVQAGGILRLSCAASGRIFYTNAMGWYRKAPAKERELVAAIDNSDSTTYYADSVKWRYTISRDNAKNTVYLQMNSLKPEDTAVYYCAAESYLYTVTFEYWGQGTQVTVSS | high polyreactivity |
| QVQIVESGGGLVQAGGSLPLSCADYGLIFPDYAMGCYRQAPGKEREFVASIWRGGTTYYADSVKGRFTISRDNAKNTFYFKINSLKPEDTAVYYCASRYFHRGLVFPFTKYDYWGLGTQVTVSS | high polyreactivity |
| QVQIVESGGGLVQAGGSLRISCAASGRTFYWNAMGWNREAPGKEMELVSAISDGGGSTYYADSVKGRFSISRDNAKNTVYLQMNSLKPEDTAVYYCNTPDNQDKPYPGYDYWGQGTQVTVSS | low polyreactivity |
| QVQIVESGGGLVQAGGSLRLRCAASGRTFRDNAMGWSRQAPGKERELVAAIDIDSSTYYADSVKGRFTISRDNAKNTVYLQMISLKPEDTAVYYCAAESYHDGIGFPDYEYWGQGTQVTVSS | low polyreactivity |
| QVQIVESGGGLVQAGGSLRLSCAASGFIFGPYAMGWYRQAPGKERELVAAMSRSGGDTYYADSVKGRFTISRDFEKNTVYLQMNSLKPEDTAVYYCAAVGKYSAYNYWGQGTQVTVSS | high polyreactivity |
| QVQIVESGGGLVQAGGSLRLSCAASGFIFGQYAMGWYRQAPGKERELVAAISSVGTTNYADSVKGRFTISRDNAKNTVYLQMNSLKPEDTAVYYCNAPVFYYWDYSYFPYEVDYWGQGTQVTESS | low polyreactivity |
| QVQIVESGGGLVQAGGSLRLSCAASGFIFWFNAMGWYRQAPGKERELVATISWSDTSTYYAVSVKGRFTISRDNAKNTVYLQMNSLKPEDTAVYYFATDASETSLPEYYWGQGTQETVSS | low polyreactivity |
| QVQIVESGGGLVQAGGSLRLSCAASGFTCRGNAMGWYRQAPGKERELVATISYNAGSTYYADAVKGRFTISRDNAKNTVYFQMNSLNPEDTAVYYCAVELDSEPDYEPWTEYDYWGQGTQVTVSS | low polyreactivity |

| Sequence | polyreactivity (PSR sort gate) |
| --- | --- |
| QVQIVESGGGLVQAGGSLRLSCAASGFTIDQYAMGWYRQAPGKERELVAAISWRGGSTYYADSVKGRFTISRDNAKNTVYLQMNSLKPEDTAVYYCNGYSPYHAGVDYGYWGQGTQVTVSS | high polyreactivity |
| QVQIVESGGGLVQAGGSLRLSCAASGLIFDANAMGWYRQAPGKERELVAAISNGDSTYYADSVKGRFTISRDNAKNTVYLQMNSLKPEDTAVYYCNARIIYRKWLLRSGTFNYWGQGTQVTVSS | low polyreactivity |
| QVQIVESGGGLVQAGGSLRLSCAASGLTFAYYAMGRYRQAPGKERELVAAISYSGGSTYYADSVKGRFTISRDNAKITVYLQMNSLKPEDTAVYYCNAYSRKTPHLYYYWGQGTQVTVSS | high polyreactivity |
| QVQIVESGGGLVQAGGSLRLSCAASGRIFGYNAMGWYRQAPGKERELVAAISNTGGSTYYADSVKGRFTISRDNAKNTVYLQMNSLKPEDTAVYYCNASGRRVQIWEGDYWGHGTQVTVSS | high polyreactivity |
| QVQIVESGGGLVQAGGSLRLSCAASGRIFTYNAMGWSRQAPGKERELVAAITRGGTTNYADSVKVRFTISRDNAKNTVYLQMNSLKPEDTAVSYCARAGAHPWWSRSTMYYWGQGTQVTVSS | low polyreactivity |
| QVQIVESGGGLVQAGGSLRLSCAASGRIFVRNAMGWYRQAPAKERELVADITNGGSTNYADSVKGRFTISRDNEKNTVYLQMNSLKPEDTAVYYCAADSLGVYDGDYWGQGTQVTVSS | low polyreactivity |
| QVQIVESGGGLVQAGGSLRLSCAASGRIFYNYAMGWNRQAPGKERELVAAISGSGGSTYYADSVKGRFTISRDNAKNTVYLQMNSLKPEDTAVYYCSTSGPQYYSRNFDYWGQGTQVTVSS | low polyreactivity |
| QVQIVESGGGLVQAGGSLRLSCAASGRILVPYTMGWYRQAPGKERELVAAITIGGRTTYADSVKGRFTISRDNAKNTVYLQMNSLKPEDTAVYYCAKRDWRYEWYGYDYWGQGTQVTVSS | low polyreactivity |
| QVQIVESGGGLVQAGGSLRLSCAASGRNFGANAMGWYRQAPGKERELVASISSSGSRTYYAVSVKGRFTISRDNAKNTVSLQMNSLKPEDSAVYYCAARYWIYRSEYDYWGQGTQVTVSS | high polyreactivity |
| QVQIVESGGGLVQAGGSLRLSCAASGRTFTYYAMGWYRQAPGKERELVARIRSGGSTYYADSVKGRFTISRDNEKNTVYLQMNSLKPEDTAVYYCNADRRSAGLYNYWGQGTQVTVSS | low polyreactivity |
| QVQIVESGGGLVQAGGSLRLSCAASGRTFYSYAMGWYRQAPGKERELVAAIRWPGVRTYYADSVKGRFTISRDNAKNSFYLQMNSLKPEDTAVYYCAVYRYSGKGYRGPRDYWGQGTQVTVSS | high polyreactivity |
| QVQIVESGGGLVQAGGSLRLSCAASGRTIYYYTMGWYIQAPGKERELVAAITHGGSTYYADSVKGRFTISRDNAKNTVYLQMNSLNPEDTAVYYCNAVYDYPYEYWGQGTQVTVSS | high polyreactivity |
| QVQIVESGGGLVQAGGSLRLSCAASGRTLALYTMGWYRQAPGKERELVAAINWSGTSTYYADSVKGRNTISRDNAKNTVYLQINILKPEDTAVYYCNADGSAYIEDGYDYWGQGTQVTVSS | low polyreactivity |
| QVQIVESGGGLVQAGGSLRLSCAASGRTLGFYAMGWYRQAPGKEREFVAAISSSVGRTYYADSVKGRFTISRDNAKNTVYLHMNRLKPEDTAVYYCAAKVSAWKKKSEMNYWGQGTQVTVSS | high polyreactivity |
| QVQIVESGGGLVQAGGSLRLSCAASGRTLSYYAMGWYRQAPGKEREFVAAITGSGGSTYYADSVKGRFTISRDNAKNYVYFQMNSLKPEDTAVYYCNAKGLGVFTVEYYYWGQGTQVTVSS | low polyreactivity |
| QVQIVESGGGLVQAGGSLRLSCAASGSIFDDYAMGWYRQAPGKERELVAAISSGVSTDYADSVKGRFTISRDNAKNTVYLQMYSLKPEDTAVYYCAADDQYRVTLGYDYWGQGTQVTVSS | low polyreactivity |
| QVQIVESGGGLVQAGGSLRLSCAASGSIFFIYGMGWYRQAPVKERELVARIRVSGDSTYYADSVKGRFTISRDNAKNTVYVQMNSLKPVDTAVYYCNARSLWGYGYWGQCTQVTVSS | high polyreactivity |
| QVQIVESGGGLVQAGGSLRLSCAASGSIFGANDMGWYRQAPGKERELVAAISTRGGRTYYADSVKGRFTISRDNEMNTVYLHMNSLKPEDTAVYYCDTSGGRPYKYEYWGQGTQVTVSS | high polyreactivity |
| QVQIVESGGGLVQAGGSLRLSCAASGSIFSGYVMGWYRQAPGKERELVAAITWSGGRTYYADSVKGRFTISRDNAKNTVYLQMNSLKPEDTAVYYCAKRKIKSSGYYYWGQGTQVTVSS | high polyreactivity |
| QVQIVESGGGLVQAGGSLRLSCAASGSIFSVYAMGWYRQAPGKERELVAGINRRTGITYYADSVKGRFTISRDNAKNTVYLQMNSLKPEDTAVYYCAADPYVKYNYWGQGTQVTVSS | low polyreactivity |

— the nanobody polyreactivity screen of Harvey et al. (2022)
